The target of assay [1] is T1, Human FcRn, soluble single-chain fusion protein (B2M-(GGGGS)3-heavy chain without transmembrane domain-6xHis) (human, UniProt P61769 21-119; P55899 24-297).
T1 construct: also called neonatal Fc receptor; hFcRn
The experiment in a line: ELISA, FcRn coated on plate, pH 6.0. On the procedure:
(§1) In vitro binding affinity assay. The binding affinity of the BChE fusion proteins corresponding to CocH3-Fc (SEQ ID NO: 9), CocH3-Fc(M6) (SEQ ID NO: 10), CocH3G-Fc(M3) (SEQ ID NO: 11), CocH3G-Fc(M4) (SEQ ID NO: 12), CocH3G-Fc(M6) (SEQ ID NO: 13), CocH5G-Fc(M3) (SEQ ID NO: 14), CocH5G-Fc(M4) (SEQ ID NO: 15), and CocH5G-Fc(M6) (SEQ ID NO: 16), BChE-Fc(M3) (SEQ ID NO: 17), BChE-Fc(M4) (SEQ ID NO: 18), and BChE-Fc(M6) (SEQ ID NO: 19) with FcRn was determined by using an enzyme-linked immunosorbent assay (ELISA). 400 ng of the 6×His-tagged FcRn in 100 μL 0.05 M PBS, pH 7.4, was immobilized in a 96-well flat-bottomed EIA plate (Corning) at 4° C. overnight (or 37° C. for 2 hours). At the same time, corresponding empty wells without FcRn coating were left as a negative control. The liquid was dumped from the plates and the rest was drained on a paper towel. Coated wells were blocked with blocking buffer (0.05 M PBS, pH 6.0, containing 1 mg/ml casein) (250 μL/well) at room temperature (RT) for 1 hour. After washing twice with washing buffer (0.05 M PBS, pH 6.0) (250 μL/well), 100 μL of BChE fusion protein diluted in blocking buffer, pH 6.0 was added to each well at a range of concentrations. The plate was then covered with an adhesive plastic and incubated, with continuous shaking, at RT for 1 hour. After washing three times with washing buffer, an enzyme horseradish peroxidase (HRP)-conjugated antibody (anti-human IgG-Fc Ab-HRP) (70 μL/well), diluted with blocking buffer at a ratio of 1:20,000, was added into each well and incubated at RT for 30 minutes on a shaker. The wells were then washed three times with washing buffer (250 μL/well) before 250 μL TMB substrate was added to the wells. The ELISA plate was kept in the dark until the desired color developed. The reaction was stopped with 100 μL of 0.5 M HCl. The absorbance (the developed blue color) was measured at 450 nm using a microplate reader. All measurements were performed in triplicate or quadruplicate.
For orientation: An ELISA detects its analyte on a solid surface through an enzyme-linked reagent.

The target in assay [2] is T1, Human FcRn, soluble single-chain fusion …. The experiment in a line: ELISA, FcRn coated on plate, pH 6.0; reference CocH3-Fc. On the procedure: as §1, with “After washing three times with washing buffer, an enzyme horseradish peroxidase (HRP)-conjugated antibody (anti-human IgG-Fc Ab-HRP) (70 μL/well), diluted with blocking buffer at a ratio of 1:20,000, was added into each well and incubated at RT for 30 minutes on a shaker. The wells were then washed three times with washing buffer (250 μL/well) before 250 μL TMB substrate was added to the wells. The ELISA plate was kept in the dark until the desired color developed. The reaction was stopped with 100 μL of 0.5 M HCl.” left out, “All measurements were performed in triplicate or quadruplicate.” left out

Assay [3] has the same target. Kind of assay: ELISA, FcRn coated on plate, pH 6.0, anti-human IgG-Fc-HRP detection. On the procedure:
as §1, with “After washing three times with washing buffer, an enzyme horseradish peroxidase (HRP)-conjugated antibody (anti-human IgG-Fc Ab-HRP) (70 μL/well), diluted with blocking buffer at a ratio of 1:20,000, was added into each well and incubated at RT for 30 minutes on a shaker. The wells were then washed three times with washing buffer (250 μL/well) before 250 μL TMB substrate was added to the wells. The ELISA plate was kept in the dark until the desired color developed. The reaction was stopped with 100 μL of 0.5 M HCl.” left out, “All measurements were performed in triplicate or quadruplicate.” left out

4 molecules from patent US20240041989A1 (UNIVERSITY OF KENTUCKY RESEARCH FOUNDATION, published 2024) can be followed below.

Positions count from the first letter of the chain named. In names and notes the source's numbering stands.

T1 sequence (P61769 other isoform, or with tags, fused parts or gaps limits assumed): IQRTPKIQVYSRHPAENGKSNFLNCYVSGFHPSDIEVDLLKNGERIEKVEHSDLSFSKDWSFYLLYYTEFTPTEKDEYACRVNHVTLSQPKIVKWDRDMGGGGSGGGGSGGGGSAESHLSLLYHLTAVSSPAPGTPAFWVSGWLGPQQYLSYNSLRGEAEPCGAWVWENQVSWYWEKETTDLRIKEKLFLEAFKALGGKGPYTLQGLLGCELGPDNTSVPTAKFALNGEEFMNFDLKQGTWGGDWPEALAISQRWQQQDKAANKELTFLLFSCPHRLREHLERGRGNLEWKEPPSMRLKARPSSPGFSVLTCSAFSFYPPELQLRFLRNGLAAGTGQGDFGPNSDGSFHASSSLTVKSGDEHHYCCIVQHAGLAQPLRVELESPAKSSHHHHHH

B1: BChE-Fc(M6) (Fc fusion)
chain: EDDIIIATKNGKVRGMNLTVFGGTVTAFLGIPYAQPPLGRLRFKKPQSLTKWSDIWNATKYANSCCQNIDQSFPGFHGSEMWNPNTDLSEDCLYLNVWIPAPKPKNATVLIWIYGGGFQTGTSSLHVYDGKFLARVERVIVVSMNYRVGALGFLALPGNPEAPGNMGLFDQQLALQWVQKNIAAFGGNPKSVTLFGESAGAASVSLHLLSPGSHSLFTRAILQSGSFNAPWAVTSLYEARNRTLNLAKLTGCSRENETEIIKCLRNKDPQEILLNEAFVVPYGTPLSVNFGPTVDGDFLTDMPDILLELGQFKKTQILVGVNKDEGTAFLVYGAPGFSKDNNSIITRKEFQEGLKIFFPGVSEFGKESILFHYTDWVDDQRPENYREALGDVVGDYNFICPALEFTKKFSEWGNNAFFYYFEHRSSKLPWPEWMGVMHGYEIEFVFGLPLERRDNYTKAEEILSRSIVKRWANFAKYGNPNETQNNSTSWPVFKSTEQKYLTLNTESTRIMTKLRAQQCRFWTSFFPKVVEPKSCDKTHTCPPCPAPELLGGPSVFLFPPKPKDTLYITREPEVTCVVVDVSHEDPEVKFNWYVDGVEVHNAKTKPREEQYNSTYRVVSVLTVLHQDWLNGKEYKCKVSNKALPAPIEKTISKAKGQPREPQVYTLPPSREEMTKNQVSLTCLVKGFYPSDIAVEWESNGQPENNYKTTPPVLDSDGSFFLYSKLTVDKSRWQQGNVFSCSVMHEALHNHYTQKSLSLSPGK
notes: Wild-type BChE fused to Fc(M6)
As for B1, the Kd in assay [1] came to 40 nM.

B2: CocH5G-Fc(M6) (Fc fusion)
chain: B1 chain with A199S, F227A, P285A, S287G, A328W, Y332G, T523G
B2 registered a Kd in assay [1] of 40 nM.

B3: CocH3-Fc(M6) (Fc fusion)
chain: B1 chain with A199S, F227A, S287G, A328W, Y332G
notes: Expressed in CHO-S cells and purified on protein A; also called A530V/M567Y/S569T/T571E/D671E/L673M mutant of CocH3-Fc
With B3, the Kd in assay [1] and in assay [3] was 43 nM each time. Moreover, the “fold improvement in binding affinity against CocH3-Fc” value in assay [2] was around 100 fold.

B4: CocH3G-Fc(M6) (Fc fusion)
chain: B1 chain with A199S, F227A, S287G, A328W, Y332G, T523G
Regarding B4, the affinity in assay [1], expressed as Kd, was 40 nM.

By Kd is commonly meant the free concentration of one partner at which half of the binding sites on the other are occupied at equilibrium, for simple one-to-one binding.
